# Key:
# [1] = biological target: Pfk-I (DAS+4), N-terminal 6x-His-tagged Pfk-I with the modified DAS+4 tag at the C terminus (UniProt P0A796)
# [2] = biological target: Pfk-I (LAA), N-terminal 6x-His-tagged Pfk-I with the native ssrA tag (LAA) appended to the C terminus (UniProt P0A796)
# [3] = biological target: Pfk-I (untagged), N-terminal 6x-His-tagged phosphofructokinase-I without C-terminal degradation tag (UniProt P0A796)
# Chain of Pfk-I (untagged), N-terminal 6x-His-tagged phosphofructokinase-I without C-terminal degradation tag (P0A796 whole entry): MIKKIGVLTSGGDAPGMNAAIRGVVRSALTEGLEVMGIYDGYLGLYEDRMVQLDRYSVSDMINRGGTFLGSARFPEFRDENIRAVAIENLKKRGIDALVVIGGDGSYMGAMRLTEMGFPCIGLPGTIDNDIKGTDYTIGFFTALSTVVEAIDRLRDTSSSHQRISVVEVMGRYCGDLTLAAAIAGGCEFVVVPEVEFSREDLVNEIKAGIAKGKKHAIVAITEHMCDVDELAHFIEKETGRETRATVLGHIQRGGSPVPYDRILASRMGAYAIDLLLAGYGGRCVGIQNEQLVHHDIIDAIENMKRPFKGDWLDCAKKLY
# Chain of Pfk-I (LAA), N-terminal 6x-His-tagged Pfk-I with the native ssrA tag (LAA) appended to the C terminus (P0A796 other isoform, or with tags, fused parts or gaps): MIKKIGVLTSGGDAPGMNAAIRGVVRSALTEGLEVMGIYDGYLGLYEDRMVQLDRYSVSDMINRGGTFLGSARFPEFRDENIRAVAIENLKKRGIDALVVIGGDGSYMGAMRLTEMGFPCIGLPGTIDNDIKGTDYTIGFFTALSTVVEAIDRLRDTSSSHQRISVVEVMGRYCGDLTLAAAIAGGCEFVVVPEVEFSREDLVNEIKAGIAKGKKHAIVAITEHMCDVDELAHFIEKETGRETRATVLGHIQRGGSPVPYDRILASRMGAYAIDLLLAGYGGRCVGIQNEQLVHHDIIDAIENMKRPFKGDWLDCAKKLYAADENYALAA
# Chain of Pfk-I (DAS+4), N-terminal 6x-His-tagged Pfk-I with the modified DAS+4 tag at the C terminus (P0A796 other isoform, or with tags, fused parts or gaps): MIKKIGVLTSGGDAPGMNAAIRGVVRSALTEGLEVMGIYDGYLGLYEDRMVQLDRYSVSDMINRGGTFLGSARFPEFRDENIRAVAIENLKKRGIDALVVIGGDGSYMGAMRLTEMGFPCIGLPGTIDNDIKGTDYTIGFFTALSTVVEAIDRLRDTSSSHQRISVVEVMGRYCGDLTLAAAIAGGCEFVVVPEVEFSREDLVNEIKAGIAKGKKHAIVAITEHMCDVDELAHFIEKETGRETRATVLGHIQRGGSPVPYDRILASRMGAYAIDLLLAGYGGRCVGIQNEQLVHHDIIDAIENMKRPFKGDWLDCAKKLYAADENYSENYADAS
substance,measurement,setting,value
ClpXP protease (0.3 µM ClpX6 and 0.9 µM ClpP14),"in vitro degradation by ClpXP with ATP, SDS-PAGE time course, no SspB",[1],no significant degradation was observed over the 60 minute period
same,"in vitro degradation by ClpXP with ATP, SDS-PAGE time course",[2],shows almost complete disappearance by 20 minutes
same,"in vitro degradation by ClpXP with ATP, SDS-PAGE time course",[3],does not show significant degradation during the 60 minute incubation with ClpXP
